# Experimental data as given in the DeepSol protein solubility set.
# Test: soluble on expression in E. coli; label from the status in PepcDB or PDB records
row,Sequence,soluble on expression in E. coli
1,MRHPLISLLLLIAFYSTSSEAFVPKCNSFYVRWPRVRLNFKAVAEARLSLKGCQSACSLGEDPVSPGKQLECAAVNHQASPDGFSHLCAVFQPHQLQNVDGYVEADDRFTFYWKYCLPSTRKCSGEYAFTYLSDRYMDQKSVIKWTTKANLEECLSDCLDEKSFECRSISFNRTDGGCHMSKDSQISRPEAIRLNNNPNYRIDYYENNCYNLSESFTFKHECRDNGISVSVKSRLPYTGAIYGLYDFFTCRTEPKEATEFDHFFPYQTVSKNCSDSIKYKGNEMVLEVVLSTDGIEPLYFITPEDLTYQAKCPISGVKAKDPANTKSSAHLDNRNKAMEASAHALFELLSKTGDDEALQNTFPLPLTTTTEVISDVPTTTVQTSTTVPTTPSKTTATTTTTPKPTTTETATTSSSTTTVTTQKPTTVTSTTTLPSTTASTTTKTTTSTPTSPQTTTTHVGAPASSVASVAHDGSTLAGKPKVPVIFDIFHNGQPVEAVVVGTKISLSFRPHYPIPPEYVDVRGCQVEPIDPKYEWEHEPLFIIRDGCPADGVGLVCPPTHSEFGAKVSVEAFRYQTTGQVQYSCLVRICPFAPCPKNTCDDVEGCDSSYMHRYRRELSLEDIKKALEANPELASQFGISPSAFARNPSKSKNFTSVVEEQQRIALGGDYLVRRRLIVVNSEDQLRYYVRTGNI,not soluble
2,MNLLQRALVFTGGHISRYQAVIAVNSVGKNARFYSTTDDNMAAPEESVVAKDEMKRFMVECMTKVGATESHATQLALVLLEGDIRGHYSHGLNRLDMYVRDIEQNVCKGDGEPIILKEKAGTAWVDGNNLLGPVVGNFCMDLAIEKAKNAGIGWVVAKGSNHYGIAGWYALRAMKKGMLGMSMTNTSPISFPTRSAVPALGTNPISLAAPGTGDDSFVLDMASTTVAIGKVELAARKENPVPLSWGVGEGGKETTDPTKVLYGGGLLPLGGVEVSGGYKGYGLSSMIEIFCGILAGAHWGPHVRKWMSTKSEADLGQCFVAIDPEAFAPGFADRLQDFMQTMRALPTSSPSFKVEVAGDMERRHEALVEQLGGIPYHKNQITFVNDLAAKLGVKTVDLVQ,not soluble
3,MTATQITGVVLAAGRSNRLGTPKQLLPYRDTTVLGATLDVARQAGFDQLILTLGGAASAVRAAMALDGTDVVVVEDVERGCAASLRVALARVHPRATGIVLMLGDQPQVAPATLRRIIDVGPATEIMVCRYADGVGHPFWFSRTVFGELARLHGDKGVWKLVHSGRHPVRELAVDGCVPLDVDTWDDYRRLLESVPS,not soluble
4,MTLRAARPEFLDLFPAGAEARRLADGFTWTEGPVYVPARSAVIFSDVRQNRTWAWSDDGQLSPEMHPSHHQNGHCLNKQGHLIACSHGLRRLERQREPGGEWESIADSFEGKKLNSPNDVCLAPDGSLWFSDPTYGIDKPEEGYGGEMELPGRWVFRLAPDGTLSAPIRDRVKPNGLAFLPSGNLLVSDTGDNATHRYCLNARGETEYQGVHFTVEPGKTDGLRVDAGGLIWASAGDGVHVLTPDGDELGRVLTPQTTSNLCFGGPEGRTLYMTVSTEFWSIETNVRGLEHHHHHH,soluble
5,MGHHHHHHSHMLRVLLSAQTSPARLSGLLLIPPVQPCCLGPSKWGDRPVGGGPSAGPAQGLQRLLEQAKSPGELLRWLGQNPSKVRAHHYSVALRRLGQLLGSRPRPPPVEQVTLQDLSQLIIRNCPSFDIHTIHVCLHLAVLLGGTEVGPALWATELPAPGTAVYALP,not soluble
6,MGHHHHHHSHMEEKFEDRSPAAECLSEKETEELMAWMRNVLGSRVTNVKVTLRLDTHPAMVTVLEMGAARHFLRMQQLAKTQEERAQLLQPTLEINPRHALIKKLNQLRASEPGLAQLLVDQIYENAMIAAGLVDDPRAMVGRLNELLVKALERH,soluble
7,MKLPYSITVTYDHRTSPHIPFSSHIGKQNSFFSFLSRKKSMYHHITFCSVPATDGRARGQRPTGHFHLFFVVNRLLPRTRSTTKPSCSFAQPVTPRTREGAGVRGHRRRRRGSLSLIPWKTSNDKQKDDKRSLFCYMREIIAVGNFSKYMLLEHHHHHH,not soluble
8,MGSDKIHHHHHHMTDPFFLSDSGLLESYRAPKWLPGGNAQTIFPYFINLSPIISYRRERWEMDDGDFIDIDWLDGESDKPLVIMLHGLEGSSQSHYALSLMNLLQMLRWRGAVVHFRGCSGYSNRLPRAYHAGDSMEIDRMLRHIAHRNDSHEWNTPCYVVGVSLGGNALLKWLGEQGAQAARQIAGVVAVSVPLDLAAAGKVLDSGFNRVYTHHFLTTLKRKALEKNRQFPGLLNARAVAACRSLYEFDNLVTAPLHGFRDTDDYWRQSSSKPWLGSVQVPTLLINARNDPFLPESVLPQKSEVSSFVSLEFPQQGGHVGFIQGTFPGKLDWLPQRIIEFFSSLCGLDAIPG,not soluble
9,GPGSMARVTLREDFDDCAADYRILSVSADHFKEITCKVAACKQTGEEMGKINETHHEATTLMTMKGGSQLLLCDDERTFRVRRVEYSNTLLLAEAKAAKMHDTNGIIESDNASDAGEGREHVVVCSSERVFEVKPSVAYNDISQHLLESPLTLKELDTLGTVERSDENVEYIKREELENGTSSSAQRFYTFPQLVALNRSSARELAVILSDMGAVVFNGYVRLLKPALMREALRASLNFFDAYDTMSWEGVMEQLCPSVYPHIVLRAVRAAYGNATASGETPRGMAAFLQVPKVLQALAASVLLADDAEQNTQFTEAELQDKKLSKSVNRRGSLFPELDFDIFYDSWTSSIPSSLFADGTLPSQSDRNALLKFLYGSVIVVRNAEGDSHVGARAVWAPSNVLSTDVSLRTRQLFEIRPGRWEAEELRAYVAPLLDPGVAFDHIIVRYAKEYRVPGRPVMYGNLS,not soluble
10,MRKQFLIAHRGYSTIAPENTHLAFAAAQLFGFDGLWMEVQLTKDKQIVVTNLDNYKVGNKTHKLSDINLVNLKKINLAKQFKVNVQEQTILTLKEVLMEFLTPFRFLLLFIKGEEEQQNQVLVEQLAQLLEGFELAKEKLILLSSHFSTIKYLNEKLKSFKTSFVFNSKKQLVHLTKDEITQNCRFLAPNDSFYHKNCAELQSYGLPIILWVIKGLLRYQFYENDRFVKFQIAAQLY,soluble
11,MERPISEAYFQEAKRHIPGGVSSPVRAFKAVGGTPPFLVRGEGAYVWDADGNRYLDYVMSWGPLILGHAHPKVLARVRETLERGLTFGAPSPLEVALAKKVKRAYPFVDLVRFVNSGTEATMSALRLARGYTGRPYIVKFRGNYHGHADGLLVEAGSGALTLGVPSSAGVPEEYAKLTLVLEYNDPEGLREVLKRRGEEIAAIIFEPVVGNAGVLVPTEDFLKALHEAKAYGVLLIADEVMTGFRLAFGGATELLGLKPDLVTLGKILGGGLPAAAYAGRREIMEKVAPLGPVYQAGTLSGNPLAMAAGLATLELLEENPGYYAYLEDLGARLEAGLKEVLKEKGLPHTVNRVGSMITVFFTEGPVVTFQDARRTDTELFKRFFHGLLDRGIYWPPSNFEAAFLSVAHREEDVEKTLEALRKAL,soluble
12,MNYELLTTENAPVKMWTKGVPVEADARQQLINTAKMPFIFKHIAVMPDVHLGKGSTIGSVIPTKGAIIPAAVGVDIGCGMNALRTALTAADLPENLAELRQAIETAVPHGRTTGRCKRDKGAWENPPFNVDAKWAELEAGYQWLTQKYPRFLNTNNYKHLGTLGTGNHFIEICLDESEQVWIMLHSGSRGIGNAIGTYFIDLAQKEMQDQLETLPSRDLAYFMEGTEYFDDYLRAVAWAQLFASLNRDAMMENVVTALQSITQKTVRQPQTLAMEEINCHHNYVQKEQLFGEEIYVTRKGAVSARAGQYGIIPGSMGAKSFIVRGLGNEESFCSCSHGAGRVMSRTKAKKLFSVEDQIRATAHVECRKDAEVIDEIPMAYKDIDAVMAAQSDLVEVIYTLRQVVCVKGLEHHHHHH,soluble
13,MEDSCVLRGVMINKDVTHPRMRRYIKNPRIVLLDSSLEYKKGESQTDIEITREEDFTRILQMEEEYIHQLCEDIIQLKPDVVITEKGISDLAQHYLMRANVTAIRRVRKTDNNRIARACGARIVSRPEELREDDVGTGAGLLEIKKIGDEYFTFITDCKDPKACTILLRGASHHHHHH,soluble
14,ASPLMSRTPAFERAAALARAKSAALHIVAFDYVEGLAAAGLLNERALNEMRDGYLASHRQWLEQQAQLIRQSGVEVTTEVVWVMRPLDEIMAHVHEIKPSMVIKDIGHESWLTRAMFTSLDIRLLHDCPVPLHLVANVDH,not soluble
15,MAHHHHHHMLTIVDELKAAVMARHEADAPKMKILKEKYKNEKLSDATIDAAYGGMRGITGLIYESSMLDKEQGICFRGMTIPECCEKIPKSWKGGTSPLPEGMLWLLMTGSIPTDKQVKELHVELHRRADNEAITAATKTIASLPENTHPMTQLSTGVLALQAFSKFAPAYASGKAIKSNFWEYALEDSLDIIARTPYLAAAIYNRLTTGRAAVLNPANPDLDWAANFTNMLGYQDEKFWDCMRLYLSLHADHEGGNVSAHATTLVASALSDPYLSFSAGLNGLAGPLHGLANQESLSYLFEMRDKCKAAGVNMKDRKELAAGLEKLTWERLNAKRVIPGYGHAVLRIPDPRYMCLREYCLKHFPDDELFFLVDTIYSIMPDILKKHGKTKNPFPNVDAHSGMLLQHFGLTEQNFYTVLFGISRQLGALTGVVWDRLQGRPIERPKSITSDALFKKFKIE,not soluble
16,MGSDKIHHHHHHENLYFQGMWKSISQVLAEQFGAYYFIKHKEKLYSGEMNEIWLINDEVQTVFVKINERSYRSMFRAEADQLALLAKTNSINVPLVYGIGNSQGHSFLLLEALNKSKNKQSSFTIFAEKIAQLHQIQGPDKYGLDFDTWLGPIYQPNDWQTSWAKFFSENRIGWQLQICKEKGLIFGNIDLIVQIVADTLSKHNPKPSILHGNLWIENCIQVDDKIFVCNPACYWGDRECDIAFSSLFEPFPTNFYQRYNEIYPLEEGYLERKLIYQLYYLLNFSYRYYNKKQSYVSLTQKLINQILHKIDK,soluble
17,MGNICIGGPRMSQQVYSPERADTPQRNALREQTEADIEQNSESMRLQQKIDDLKPYVSNATGPMKAYGQAAMDRASGKKTYVSFAELDAEHLDAMVDVENQRNPDLNLRYFKHHKEFIQALESDGPSSFRAIYPLTKPRTGQAAKHHVMADVRLTPCEPPSIVITEPGVIVGKRNKQLHRHNQTLEDLSESGVQLSQVAIIETQAQKTPDDCVMYCLNYAIKAHKNADKFDDIHHGLQRGTFVNRINGRRVQDADHCGHF,not soluble
18,MRLLVIIILVAFFLCTTAELMEKRSSMGGSAFGGIDRIPLSYLRKYYRQKTMKRDDNELLDFSPQNSQLGYRSISFWPLY,not soluble
19,MGSDKIHHHHHHMSQQASLPDDDNWLLEDTDGDEAGRPSEVRKPWKVLIVDDEKDVHTATRIALRGISYKERPLELLSAYSGAEAFQMLQQHADIALIMLDVVMESEDAGLRLVHRIREELDNGVVRIVLRTGQPGQAPEQEVILNYDINDYKTKTELTTQKLFTTTIASLRAYENLVSLEKNRQGLAKILESASDLYQLHSLREFASGVLRQISALLDIGTDGILCVRNDNLVGRPELEILAVSGAYEYLAESGDLSNEPHLAAVFQQVFKEKRSIYQHPYDVLYISSRNRREFAVHFMPQWPLDSVERDLLDVFCQRISAAYDNLYLYNQLRSAQEATVVALADLAEFRDTDTGDHVLRVQKLTDAIAEEMVSHNHYPELMTHEFMDMVGMASILHDIGKVATPDHILLKPGKLDPEERAIMEQHATIGAQILAKSAQLVEGASYLSLGSEIAGGHHEHFDGNGYPGKLQGQAIPLSARIVAVVDVFDALLNKRPYKEPWSMEDTMKYINGRSGTQFDPHVVAALSRLVSEDRLPVQFGD,not soluble
20,VAERNSLAKTVYAIFVPLREGESQIAAEITPMRSERFGVDVLPGHPALSQIEDLMSDSWQSALGRQTGPFRRIHWAGQLAHAMERDDRYDVIFFDVGPSLGPFNRTVLLGCDAFVTPTATDLFSFHAFGNLARWFDAWVTQYAEIHEGNMAEWKKYSADVEAKTRPLRLGGFDGEGLRYLGYTTLEYVKRRANGQEQLVGAFERFRGRFAAEAERISNSLSKHSNSTLLGHVPHMHSMPATAQDVHAPIMELSSSDRVRGAQINQRNAYAEKINSVAANVYKALFPNE,not soluble
